Results as given in the nanobody polyreactivity screen of Harvey et al. (2022).

assay: yeast display, Sf9 membrane polyspecificity reagent, FACS + sequencing; frameworks hold sequencing errors
In short: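 Using colony PCR, genes from sorted yeast display clones were amplified, then sequenced on MiSeq at 2 × 250 and filtered by CDR length. The clones had been stained with 10% biotinylated, detergent-solubilized Sf9 membrane reagent for 1 hour at 4 °C and sorted by FACS into low and high (top ~1%) gates on anti-HA and streptavidin fluorescence. Polyreactivity labels come from the gate of origin.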

Row | Sequence | polyreactivity (PSR sort gate)
1 | QVQLVESGGGLVQAGGSLRLSCADSGSTFRRNVMGWYRQAPGKERELVASIRSGGTTNYADSVKGRFTISRDNAKNTVYLQMNSLKPEDTAVYYCAAARSRGYYRASAVVLYGYWGQGTQVTVSS | high polyreactivity
2 | QFQLVESGGGLVQAGGSLRLSCADSGSIFSGYAMGRYRQEPGKDSELVASITRGGSTYYADSVKGRFTISLDNAKNNVYLQINSLKQEDTAVYYCARYGYKNRPLGMDYWGQGTQVTVSS | low polyreactivity
3 | QVQLVESGGGLVQAGGSLRLSCAASGFTFAFYDMGWYRQAPGKERELVAGISTSDGSTYYADSVKGRFTISRDNAKNTVYLQMNSLKPEDTAVYYCAASYYTYWWGYPVITFDYWGQGTQVTVSS | high polyreactivity
4 | QVQLVESGGGLVQAGGSLRLSCAASGSTFTGYAMGWYRPAPGKERELVAGITGSGGSTYYADSVKGRFTISRDNAKNTVYLQMNSLKPEDTAVYYCAAELYDYGDLYYSEYDYWGQGTQVTVSS | low polyreactivity
5 | QVQLVETGGGLVQAGGSLRLSSAASGSTFRDYDMGWYRQARGKERELVAAISLSGGRTHYADSVKGRFTISRDNAKNTVYLQMNSLKPEDTAVYYCAARNSGPVQYYYWGQGTHVTVSS | low polyreactivity
6 | QVQLVESGGGLVQAGGSLRLSCAASGIISYKNVMGWYRQAPGKERELVAAISGRGGSTYYADSVKGRFTISRDNAKNTVYLQMNSLKPEDTAVYYCAKYPGISGYNYWGQGTQVTVSS | high polyreactivity
7 | QVQLVESGGGLFQAGGSLRLSCAASGFTSLWYGIGWYRPAPGKERELVAAITSDSSTYYADSVKGRFTISRDNAKNTVYLQMYSLKPQDTAVYSCAKYFVYVGYGRYAFWGQGTQVTVSS | low polyreactivity
8 | QVQLVESGAGLVQAGGSLRLSCAASGSIFNSYAMGWYRQPPGKERELVAAISKAGGSTYYADSVKGRFTISRDNAKNTVYLQMNSQKPEDTAVYYCAARYGRCYDSAYNYWGQGTQVTVSS | high polyreactivity
9 | QVQLVESGGGLFQAGGSILLSCPASGSTFDNYSMGWYRQAPGKERELVAGISWSGGSTFYADSVKGRFTISRDNAKYTVYLQMNSLKTEDTAVYYCAARIRYLDVRDNDNYYWGQGTQVTVSS | low polyreactivity
10 | QVQLLESGGRLVQAGGSLRLSCAASGFTFGVNAMGWYRQAPGKERELVAAITSRGGSTYYADSVKGRFTISRDNAKNTVYLQMNSLKPEDTAVYYCAALGRGYFYGYRYDHWGQGTQVSVSS | high polyreactivity
11 | QVQLVESGGGLVQAGGSHRLSCAASGSILWENAMGWYIQAPRKERELVATISVSGGGTYYADSVKGRFTISRDKAKNTDYLQMNSLKPEDTAVYYCNARYGYESQGWEDYWGQGTQVTVSS | low polyreactivity
12 | QVQLVESGGGLVLPGGRLRLSCAASGGTFSTYAIASYRQGPGKERELVAAISSRGTSTYYADSVKGRFTISRDNAKNSVYLQMNSLKPEDTAVYYCAAVGVKQFLGGNPFDYWGQGTQVTVSS | high polyreactivity
13 | QVQLVESAGGLVQAGGSLSLSCAASGRTFVIYAMGWYRKAPGKERELVAGIDSGTSTYADSVKGRFTISRDNAKNTVYLQMNSLKPEDTAVYYCAADFAPDGAGWYIPGDYDSWGQGTQVTVSS | low polyreactivity
14 | QVQLVESGGGLVQAGGSLRLSCAASGYTFVIYAMGSYRQAPGKERELVAAITTIGGRTYYADSVKGRFTISRDNAKNTVYLQMNSLKPEDTAVYYCAADIRSNRLYDGGYWGLGTQVTVSS | low polyreactivity
15 | QVQLVESGGGLVQAGGSLRLSCASSGRIFLTNAMGWYRQAPGKERELVAAITSGGSTYYADSVKGRFTISRDNAKNTVFLQMNSLKPEDTAVYYCIADTDRYWPYEYDYWGQGTQVTVSS | low polyreactivity
16 | QVQLVESGGGLVQAGGSLRLSCAASGRIFPYNAMGWSRQAPGKERELVASITSGGGSTYYADSVKGRFTISRDNAKNTVYLQMKSLKPEDTAVYYCSTRGYAWSSDKFGYWGQGTQVTVSS | high polyreactivity
17 | QVQLVESGGGLVQAGGSLSLSCAASGRIFYVNAMGWYRQAPGKERELVAAISRSGSSTYYADSVKGRFTISRDNAKNTVYLQMNSLKPEDTAVYYCAARYYGRSQHHFDYWGQGTQVTVSS | high polyreactivity
18 | QVQLVESGGGLVQAGGSLRLSCAASGSIFQYNAMGWYRPAPGKERELVAAISSRGGITYYADSVKGRFTISRDNAKNTVYLQMNSMKPEDTAVYDCAAVAYYSEVRWYEYWGQGTQVTVSS | high polyreactivity
19 | QVQLVESGGGLVQAGGSLRLSCAASGITFPYYDMGWYRQAAGKERELVAAIDWSGATSYYADSVKGRFTISRDNAKNTVYLQMNSLKPEDTAVYHCNADPPLDLWYVTNRIYHLYDYWGQGTQVTVSS | high polyreactivity
20 | QVQLVESGGGLVQAGGSLRLSCASSGRTFYIYDMGWYRQAPGKERELVAAITSVGSTNYADSVKGRFTISRDNAMNTVYLQMNSLKPEDTAVYYCAAESTVGTSGDYDYWGQGTQVTVSS | low polyreactivity

Row | Sequence | polyreactivity (PSR sort gate)
21 | QVQLVESGGGLVQAGGSLRLSCAASGFTFRRNAMGWYRQAPGKERELVAAISSGGGTYYADSVKGRFTISRDNAKNTLYLQMNSLKPEETAVYYCNAAGQVRKYGYWGQGTEVTVSS | high polyreactivity
22 | QVQLVESGGGLVQAGGSLRLSCAASGLTFKSYAMGWYRQAPGKERELVAAISWRGGRTYYADSVKGRFTISRDNAKNTVYLQMNSLKPEDTAVYYCNARSQQWWLSRYNYWGQGTQVTVSS | high polyreactivity
23 | HLQLVESGGGLVQAGGSLRLSCAPSGSTFKRNTKGWYRQAPGKEREMVASINRGGSTYYADSVKGRFTISSDNAKNTVYLQMNSLKPEDTAVYYCAKRVLNCYTGTQAPNKFGYWGQGTQVTVSS | low polyreactivity
24 | QVQLVESGGGLVQAGGSLRLSCAASGSTFSCYAMGWYRQAPGKERELVAAISSSGGTSTYADSVKARFTISRDNAKKTVYLQMNSLKPEDTAVYYCAARQYRRLRDYRHDYWGQGTQVTVSS | high polyreactivity
25 | QVQLVESGGGLVQAGGSLRLSCAASGSIFNRYAMGWYRQAPGKERELVAAIRSDGSTYYADSVKGRFTISRDNAKNTVYLQMNSLKPEDSAVYYCAAPLHRRYYEMDYWGQGSQVTVSS | low polyreactivity
26 | QVQLEESGGGLVQAGGSLRLSCAASGNTLGPYAMGWYRQATGKERELVAAITWSGGITDYADYVKGRFTISRDNAKNTVYLQMNSLKPEDTAVYYCNSGPSLGIFQGTSVGLRYDYWGQGTQVTLSS | low polyreactivity
27 | QVQLVESGGGLVQAGGSLRLSCAASGFTFFRYAMGWYRQAPGKERDLVAAITSGGGRTYYADSVKGRFTISRYNAKNTVYLQMNRLKPEDTAVYYCNAVRRVDMYYWGLGTQVTVSS | high polyreactivity
28 | QVHLVESGGGLVQAGGSLRLSCASSASIINVYAMGWYRQAPGKEREFVADINYSGGSTYADSVKGRFTISRDNAKNTVYLQMYSVKPEDTAVYYCADVYGYLYYELYYWGQGTQVTVSS | low polyreactivity
29 | QVQLVESGGGLVQAGGSLRLSCAASGFTFDYYAMGWYRQAPGKERELVAAISRRGTSTYYADSVKGRFTISRDNAKNTVYLQMYSLKPEDTAVYYCNAVTSSFYNRDSDYWGQGTQVTVSS | high polyreactivity
30 | QVQLVESVGGLVQAGGSLRLSSAASGRIFSYKVMGWYRQAPGKESELVAAITSNDGSTYYADSVKGRFTISRDNAKNTVYLQMNSLKPVDTADYYCNADYGPVSLNEPFRDDYWGQGTQVTVSS | low polyreactivity
31 | QVQLVESGGGLVQAGGSLRLSCAASGRTFSTNAMGWYRQAPGKERELVAAITASGGSTYYADSVKGRFTISRDNAKNTVYLQMNSLKPEDTAVYYCAKRYRAYHYGWWYDYWGQGTQVTVSS | high polyreactivity
32 | QVKLVESGGGLVQAGGSLRLSCAASGSTFWIYAMAWYRQAPGKERELVAAISWRGGRTYYADSVKGRFTISRDNAKNTVYLQMNSLKPEDSAVYYCYAQKRDGSMGYWGQGTQVTVSS | high polyreactivity
33 | QVQLVESGGGLVQAGGSLRLSCAASGRTFGGNTMGWSRQAPGKERELVAAISSGGSTYYADSVKGRFTISRDNAKNTVYLQMNSLKPEDTAVYYCAKSDPVGYYWDDPVTFDYWGQGTQVTVSS | low polyreactivity
34 | QVQLVESGGGLVQAGGSLRLSCAASGFIFRYYAMGWLRQAPGKERELVAAISWSGGNTYYADSVKGRFTISRDNAKNTVYLQMNSLKPEDTAVYYCAARVARISVPYDYWGQGTQVTVSS | low polyreactivity
35 | QGQLVESGGGLVQAGGSLRLSCAASGFTFTSNAMGWYRQAPGQERELVAVISTRGGSTFYADSGKGRFTISRDNAKNTVYLQMNSLKPEDTAVYYCAADSTDYRWTAYYWGQGTQVTVSS | high polyreactivity
36 | QVQLEESGGGLVQAGGSLRLSCAASGIIFITYAMGWYRQAPGKEREMVAAITNSGGGTYYADSVKGRFTISRDNAKNTVYLQLNSLKPEDTAVYYCAARKTAYGYRYDYWGQGTQVTVSS | high polyreactivity
37 | QVQLVESGGGLVQAGGSLRLSCAASGSIFGAYGMGWYRQAPGKEREFVAAITGRGSTTYYADSVKGRFTISRDNAKNTVYLQMTSLKPEDTAVYYCNTRYRGLYHYPMGSWGQGTQVTVSS | high polyreactivity
38 | QVQLVESGGGLVQAGGSLRLSAASGSTLAGNTMGWYRQAPGKERELVAAINDSGGSTYYADSVKGRFTISRDNAKNTVYLQMNSLKPEDTAVYYCNAEGSAYIEDGYDYWGQGTQVTVSS | low polyreactivity
39 | QVQLVESGGGLVQAGGSLRLSCAASGSIFDRNAMGWYRQAPGKERELVAAINSNAGITYYADSVKGRFTISRDNAKITVYLQMNSLKPEDTAVYYCAADIRVVYREDHWGQGTQVTVSS | low polyreactivity
40 | QVQLVESGGGLVQAGGSLRLSCAASGFTFNYYAMGGYRPAPGKERELVAAISTGGSTYYADSVKGRFTFSRDNAKNTVYLQMISLKPEDTAVYYCNAKPRYRKADRLDYWGQGTQVTVSS | high polyreactivity
